Molecular target: the molecule itself
Test: Blue-Native-PAGE, oligomeric conformation (self-association of identical chains)
Excerpt: Comparison of the native molecular weight (oligomeric conformation) between single purified zearalenone-cleaving polypeptides was done via Blue-Native-PAGE. Dilutions of the elutes were supplied with not denaturating loading dye (e.g. 2× loading dye: 0.126 M tris(hydroxymethyl)aminomethan/hydrochloric acid pH 6.8, 20.0% glycerol, 4.0% Coomassie Blue G-250) and separated on a 4-15% polyacrylamid gel under native conditions (e.g. Mini-PROTEAN® Tetra Cell System, 1658004EDU+4-15% Mini-PROTEAN® TGX™ Precast Protein Gels, 4561083EDU, Bio-Rad Laboratories GmbH) (5× Anode Buffer: 0.125 M Tris(hydroxymethyl)aminomethane, 0.960 M Glycine, 1× Kathode Buffer: Anode Buffer+0.02% Coomassie Blue G250; 200 V, 40 minutes). The peptide bands were visualized by Coomassie staining. The oligomeric state of selected zearalenone-cleaving polypeptides was determined by size exclusion chromatography, SEC-MALS or X-Ray crystallography. Homo-dimers (e.g. SEQ ID NO. 1) migrated faster across the BN-PAGE gel matrix, while homo-tetramers (e.g. SEQ ID NO. 2-35) were retained in the gel matrix to a higher extent. The oligomeric conformation of the zearalenone-cleaving polypeptides was determined relatively to the migration of homo-dimeric and homo-tetrameric peptides.

B1: parent alpha/beta hydrolase of SEQ ID NO: 1 (enzyme)
chain: MTDQSPETRDIFVPHAFEEQQVDLGEVVMNYVEAGSADHPALLLLPEQTGSWWSYEPVIGLLAESFHVFAVDIRGQGRSTWTPKRYSLDNFGNDLVRFISLVVKRPVIVSGNSSGGVLAAWLSAYAMPGQIRAALCEDTPFFASELVPAHGHSVRQAAGPAFELYRNFLGDQWSVADWDGFAAAAKASPSKIMSLFPSSDEPPQNLKEYDPEWARAFFEGTVALHCPHDLMLSQVKTPILITHHARAVDPHSGDLLGALSDFQAERAQAIIESAGVPVEYASFPDALHMMHQFEPERFAEVLTSWVARLPADTPGAHHHHHH
notes: homo-dimer; also called wildtype parent alpha/beta hydrolase; zearalenone-cleaving polypeptide
binding result: binds
